T1: ABCG2 (Homo sapiens, UniProt Q9UNQ0)
T1 construct: expressed in transfected cells
T1 sequence (Q9UNQ0 1-655): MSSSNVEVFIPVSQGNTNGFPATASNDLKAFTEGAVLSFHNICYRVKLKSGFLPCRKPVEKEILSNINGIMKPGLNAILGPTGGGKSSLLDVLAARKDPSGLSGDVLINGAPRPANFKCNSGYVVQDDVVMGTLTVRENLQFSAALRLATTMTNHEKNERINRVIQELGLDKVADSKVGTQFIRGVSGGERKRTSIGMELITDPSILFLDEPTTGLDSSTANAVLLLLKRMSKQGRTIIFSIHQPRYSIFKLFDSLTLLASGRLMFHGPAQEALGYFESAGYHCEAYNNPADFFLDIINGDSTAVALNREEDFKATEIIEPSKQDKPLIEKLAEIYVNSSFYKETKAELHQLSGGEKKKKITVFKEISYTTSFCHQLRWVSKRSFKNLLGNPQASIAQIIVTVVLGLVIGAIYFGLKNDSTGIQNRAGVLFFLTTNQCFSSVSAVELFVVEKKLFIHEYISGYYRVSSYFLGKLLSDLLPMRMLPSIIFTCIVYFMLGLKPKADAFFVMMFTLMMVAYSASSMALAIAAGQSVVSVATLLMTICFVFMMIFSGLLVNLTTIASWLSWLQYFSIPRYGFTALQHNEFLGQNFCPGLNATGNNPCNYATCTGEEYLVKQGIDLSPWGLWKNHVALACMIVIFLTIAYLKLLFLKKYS


Legend:
ABCG2 [1] = target: T1, ABCG2; assay: Flow cytometry binding to 293T cells overexpressing human ABCG2 (293T_ABCG2_OX); set-up: key to Binding by FACS: binding=“+”; non-significant binding=“−”; details: for binding to 293T cells overexpressing human ABCG2: in words, FIGS. 7-11, 21
Method: (§1) Cell Binding Assays. Antibody binding to cells was evaluated by flow cytometry. 293T cells stably transfected to express human or cynomolgus ABCG2 (293T_ABCG2_OX) were washed once in flow cytometry buffer (PBS+2% FBS+0.02% sodium azide), resuspended at 2×10^6 cells/mL in flow cytometry buffer, and dispensed into 96-well microtiter plates at 0.1 mL/well. Recombinant antibodies were added to cells at 5 ug/mL for initial binding confirmation, or serially diluted from 100 ug/mL in flow cytometry buffer. After incubating cells on ice for 30 min, cells were washed twice with flow cytometry buffer. Bound antibody was detected with PE-labeled F(ab′)2 fragment goat anti-human IgG (Jackson ImmunoResearch) and evaluated on an Attune NxT flow cytometer. EC50 is calculated to be the concentration of antibody that gives half maximal response.

cynomolgus ABCG2 = assay: Flow cytometry binding to 293T cells overexpressing cynomolgus ABCG2; set-up: key to Cynomolgus ABCG2 binding: binding=“+”; non-significant binding=“−”; details: for binding to 293T cells overexpressing cynomolgus ABCG2: in words, FIGS. 7-11, 21
Method: as §1

ABCG2 [2] = target: T1, ABCG2; assay type: cell-based
Method: 293T_ABCG2_OX cells were washed several times and aliquoted into 96-well plates as 50 μl aliquots/well at a cell density of 2×10e6 cells per ml in phenol red-free DMEM. Cells were mixed with 50 μl antibodies or the small molecule inhibitors of ABCG2:-fumitremorgin C (FTC), or its tetracyclic analogue K0143, with a final concentration of 1 μM. Cells were then incubated in the presence of 2.5 μM Mitoxantrone 1 h at 37° C. The cells were subsequently washed twice and finally resuspended in […] PBS. Mitoxantrone fluorescence was measured using excitation at 635 nm and emission at 647 nm. Protocols was measuring efflux blockade are found in Szabo E, et al., PLoS One. 2018 Jan. 17; 13(1):e0190629; Deeken J F, et al., Mol Pharmacol. 2009 November; 76(5):946-56).

Chain of cynomolgus ABCG2 (as listed by the source): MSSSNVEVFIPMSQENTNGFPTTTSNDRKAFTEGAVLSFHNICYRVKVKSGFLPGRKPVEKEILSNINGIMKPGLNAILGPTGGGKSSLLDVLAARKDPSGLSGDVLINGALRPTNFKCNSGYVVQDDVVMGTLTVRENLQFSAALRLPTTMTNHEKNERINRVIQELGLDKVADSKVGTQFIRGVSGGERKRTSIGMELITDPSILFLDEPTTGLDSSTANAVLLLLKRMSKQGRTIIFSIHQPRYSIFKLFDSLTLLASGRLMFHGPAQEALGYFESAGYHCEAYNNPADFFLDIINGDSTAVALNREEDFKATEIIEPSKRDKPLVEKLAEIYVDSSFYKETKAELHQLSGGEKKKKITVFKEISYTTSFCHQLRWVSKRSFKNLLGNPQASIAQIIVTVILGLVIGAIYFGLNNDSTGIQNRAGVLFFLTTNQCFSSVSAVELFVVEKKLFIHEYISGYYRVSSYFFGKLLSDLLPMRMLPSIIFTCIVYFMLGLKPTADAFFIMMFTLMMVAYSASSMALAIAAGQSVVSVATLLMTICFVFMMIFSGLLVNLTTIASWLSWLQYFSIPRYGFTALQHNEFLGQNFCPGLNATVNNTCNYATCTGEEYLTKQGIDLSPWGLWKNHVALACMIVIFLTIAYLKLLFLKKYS

Molecule | binding to 293T cells overexpressing human ABCG2 (ABCG2 [1]) | binding to 293T cells overexpressing cynomolgus ABCG2 (cynomolgus ABCG2) | other results
G2.640: Anti-G2 antibody raised in rats; VH SEQ ID NO:415, VL SEQ ID NO:416 (antibody, listed as Rattus norvegicus, V domains shown) VH: EVKLEESGPGLVQPSQTLSLTCTVSGFSLTSDGVSWVRQPPGKGLEWIAAISSGGSTYYNSALKSRLSISRDTSKSQVFLKMNSLQTEDTAIYFCTRDTYYGYNQIPFVYWGQGTLVTVSS VL: DIVIIQSPPSLSASLGDKVTISCQASQNIHRYIAWYQQKPGKAPRLLIRYTSTLESGTPSRFSGSGSGRDYSFSISNVESEDIASYYCLQYVNLWTFGGGTKLELK | did not show significant binding | did not show significant binding | 
G2.748: anti-ABCG2 monoclonal antibody (antibody, V domains shown) VH: QVSLKESGPGMLQPSKTLSLTCSFSGFSLSTSGMVVNWIRQPSGKSLEWLAAIDWDGDKYYNPSLKHRLTVSKDTSNTQVVLKITSVDTADTATYYCARSIAPYRGWFGYWGQGTLVTVSS VL: EIVLIQSPSSLPASLGERVTIICRASQDIGNNLNWYQQKPDGTIKPLIYFTSNFQSGVPSSFSGSRSGTDFSLTISSLEAEDFAMYYCQQDASLPWTFGGGTKLEIK | good binding affinity | good binding affinity | 
G2.757: anti-ABCG2 monoclonal antibody (antibody, V domains shown) VH: QVTLKESGPGILRPSHTLSLTCSFSGFSLTTYGICVSWIRQPSGKGLEWLANICWEDSKAYNPSLKNRLTISKDTSNNQVFLRIPSVDTADSAIYYCARVFNNYPFPYWGQGTLVTVSS VL: TQSPPSLSASLGDKVTITCQASQNINKYVAWYQQKPGKAPRLLIRYTSTLESGTPSRFSGSGSWRDYSFSISNVESEDIADYYCLQYVNLWTFGGGTKLELK | good binding affinity | good binding affinity | 
G2.760: anti-ABCG2 monoclonal antibody (antibody, V domains shown) VH: EVQLVESGGGLVQPGRSMKLSCAASGFTFSKSDMAWVRQAPTKGLKWVASIRYDGGNTYYRDSVRGRFTISRDNAKSTLYLQMDSLRSEDTATYYCSTAKAAISTPSYYVLDAWGQGASVTVSS VL: DIGMTQSPTSMSKSVGDRVTMNCKASQNVGSNVDWFQQKTGQSPKLLIYKSSNRYTGVPARFTGSGSGTDFTFTISNMQAEDLAVYYCMQSNSYPPTFGGGTKLELK | good binding affinity | good binding affinity | 
G2.636.hu47: humanized variant of the anti-ABCG2 antibody G2.636 (antibody, V domains shown) VH: EVQLVESGGGLVQPGGSLRLSCAASGFTFSRFYMAWVRQAPGKGLEWVAHISHGGDTTYYRDSVKGRFTISRDNSKNTLYLQMNSLRAEDTAVYYCTTSAAPWNYVMDGWGQGATVTVSS VL: DIQLTQSPSSLSASVGDRVTLTCKGSQNINNFLAWYQQKPGKAPKLLIYKTNSLHTGIPSRFSGSGSGTDYTLTISSLQPEDFATYYCYQYNNGYTFGQGTKLEIK |  |  | efflux inhibition activities and binding to human and cynomolgus ABCG2 of humanized G2.636 antibodies (ABCG2 [2]): particularly good expression and activity
G2.302 Humanized: humanized version of anti-ABCG2 antibody G2.302 (antibody, V domains shown) VH: EIQLVQSGAEVKKPGASVKVSCKASGYTFTDYYINWVRQAPGQRLEWIGWIYPGNVNVKYNEKFKGRATLTVDTSASTGYMELSSLRSEDTAVYFCARSIGLRYFDNWGQGTLVTVSS VL: EKVLTQSPATLSLSPGERATLSCRASSSVHYMYWHQQKPGQSPRLWIYYTSNLAPGVPARFSGSGSGNDYTLTISSLEPEDFAVYYCQQFTTSTWTFGGGTKLEIK |  |  | Block Efflux (ABCG2 [2]): −; Binding by FACS (ABCG2 [1]; 293T_ABCG2_OX cells): +; Cynomolgus ABCG2 binding (cynomolgus ABCG2): +

Reference: patent publication US20230212305A1, “ANTI-ABCG2 ANTIBODIES AND USES THEREOF” (Kenjockety Biotechnology, Inc., priority 2020, published 2023)
